Reference: the supplement of paper PMC9170038

System: MS2 coat protein
Experiment: apparent KD of MS2 coat protein; designed switch direction (-1 OFF switch, 1 ON switch): -1; higher = weaker reporter binding
In short: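 Each step of the titration lasted 0.8–1.5 h at the lowest concentration and 10–20 min at the highest. The protein, SNAP-549-labelled MS2 coat protein, went from 0.7 or 1.5 nM doubling to 3 µM over RNA switches transcribed on Illumina chips by stalled E. coli RNA polymerase. Normalised cluster fluorescence was curve-fitted, and the per-design median over clusters is given as apparent KD.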

[1] = Eterna round: R95, input ligand: FMN 200 uM
[2] = Eterna round: R95, input ligand: microRNA oligo, concentration not stated
[3] = Eterna round: R95, input ligand: none
[4] = input ligand: microRNA oligo, concentration not stated

Sequence	apparent KD of MS2 coat protein [2] [µM]	apparent KD of MS2 coat protein (input ligand: FMN 200 uM) [µM]	apparent KD of MS2 coat protein (input ligand: none) [µM]	further results
UAAAAGGUAGGAUAUACGAAAAAAAAGGGUAGAAAAAAAACACAUGAGGAUCACCCAUGUAGAAGGACCAAAAG [salish99_ex2_r3_048] (puzzle: Exclusion 2)	0.0298			apparent KD of MS2 coat protein [1]: 0.0643 µM; apparent KD of MS2 coat protein [3]: 0.0301 µM
UUUAAUUGUCACAUGGGUGACAUGAGGAUCACCCAUGUCACAAGCUUUUUGUUCGUCUUAUAAUUAACCCAUGUGAC [Stov1/12-B1] (Eterna round: R97, puzzle: Sensor, turn-off variant 1)		0.0139	0.0131	
GCCGAUUAAGUGAGGAUAUACCUAUGGAUACAUAGGUAGAAGGUACAUGAGGAUCACCCAUGUUCCUUAACGGC [Fiskers BMX 4 - 8] (puzzle: Brourd's mod of Exclusion 4)	0.0104			
UGAAUGUCAGGAUAUCGUGCAUACAACGAAAGUUCUAUGUGCGAGAAGGGACAUGAGGAUCACCCAUGUCUUCG [Omei Ex4 A15] (Eterna round: R97, puzzle: Exclusion 4)		0.0507	0.0183	
GCUAACCGAGGAUAUACAUGAGGAUCACCCAUGUUCGAUAUCCUCAUUAGAACUACAUGUAGAAGGCGGUAAGC [Eternabot (Original) Solution 2] (Eterna round: R97, puzzle: Exclusion 3)		0.0152	0.0138	
GGUGGGCUAGGAUAUGCUUUGGGCAGGCAUUCCUUCGAUAAACUUGAGGAUCACCCAAGUAGAAGGAGCUUGCC [salish99_ex2_r4_025] (Eterna round: R97, puzzle: Exclusion 2)		0.0108	0.0107	
CUGCUCCGUGUAGGAUAUCCGCGCAACCAACGCGGAGAAGGACAUGAGGAUCACCCAUGUAUGUUAUUAUCACGUGAAGCGUCC [Design 29] (Eterna round: R96, puzzle: Exclusion NG 1)		0.0325	0.0281	apparent KD of MS2 coat protein [4]: 0.0155 µM
UUUAUGUCAGGAUAUGAUUAGAUCUACUUCGGUAGAUCUAAUCAGAAGGGACAUGAGGAUCACCCAUGUUUUUU [Ex4 - 3 - 16] (puzzle: Exclusion 4)	0.0416			
AAAGAAGAGAGAAAAUAACACAUGAGGAUCACCCAUGUGAGAAGUUGAGGGUGAUACAGGCUUUAUGCUCGUCUUAU (puzzle: Sensor v3, turn-off variant 1)	0.204			apparent KD of MS2 coat protein [1]: 0.173 µM
CAUCUGUGAGGAUAUGGUGAGUAGUGCCUGAGCGCUGCUCACCAGAAGGCACAUGAGGAUCACCCAUGUAUGAC [JL-ex4-2.01 denovo] (puzzle: Exclusion 4)	0.0437			
GUGAAGUAAGGAUAUACAUGAGGAUCACCCAUGUGGAGGAAGGUGAUGGGAGUAGGUAGUAGAAGGUACGAGGA [JR_Exclu3_Sub064] (puzzle: Exclusion 3)	0.159			apparent KD of MS2 coat protein [1]: 0.115 µM; apparent KD of MS2 coat protein [3]: 0.201 µM
AAGCAUUGCCAAAGGUAGUGCAAAACAUGAGGAUCACCCAUGUAGGAUAUGGUAGGCAAAGCUUACCAGAAGGACAUGAUAAAU [Mat - Exclusion NG 3 - Mod of JL - D19] (Eterna round: R96, puzzle: Exclusion NG 3)		0.218	0.042	apparent KD of MS2 coat protein [4]: 0.028 µM
CCAUGUCCAGAGGAUAUGUAGCGGAUAAACGCAACAGAAGGCUGGACAUGAGGAUCACCCAUGUGCGCCUUCCA [Letion] (Eterna round: R97, puzzle: Exclusion 6)		0.0357	0.106	
GGGCAGGGAGGAUAUGUAUCGCACUACAUGAGGAUCACCCAUGUGCCUUUUGUGACGUGGACAGAAGGUCCUGCCG [Eternabot (L1) Solution 17] (Eterna round: R97, puzzle: Exclusion 5)		0.129	0.193	
GAUUGAGAGCAGGAUAUCUUAGAAAUGUAUUAAAGAGAAGGGCUCACAUGAGGAUCACCCAUGUGGUCCUAGAU [JL Dibiri mod 16] (puzzle: Exclusion 6)	0.0208			
CUUUUGUGAGGAUAUUAGUAGUAAAUAAUUAAAAUUACUACUGAGAAGGCACAUGAGGAUCACCCAUGUUCCUC [salish99_ex4_r3_056] (puzzle: Exclusion 4)	0.0352			
AAUCUGUGAGGAUAUGGUGAGUAGUGCCUGAGCGCUGCUCACCAGAAGGCACAUGAGGAUCACCCAUGUAUGAA [Mat - Exclusion 4 - Mod of JL - D3] (puzzle: Exclusion 4)	0.028			
AUGUCGGCAGGAUAUACAUGAGGAUCACCCAUGUAAAUUUUUCGUUUAACUUGAAUGUGUAGAAGGGCCAUGAA [Ex3 #68] (Eterna round: R97, puzzle: Exclusion 3)		0.0309	0.033	
GGAAGACAUGAGGAUCACCCAUGUAAGGAUAUCGGAGGUAAGGGAGGAAGGAGAUAGGCGAGAAGGUACAGGUG [JR_Exclu1_Sub094] (puzzle: Exclusion 1)	0.0355			apparent KD of MS2 coat protein [1]: 0.0472 µM; apparent KD of MS2 coat protein [3]: 0.053 µM
GUUUUACAUGAGGAUCACCCAUGUGAGGAUAUAUUAUUAAUAGUGAUAAUUAUUGGUGGUAGAAGGCGCGUGAU [JR_Exc1_Sub012] (Eterna round: R97, puzzle: Exclusion 1)		0.0509	0.0531	
UGCAUGUGAGGAUAUGGCGCUCGAUUGCGGAAGGAGCGAGUUUAGAAGGUACAUGAGGAUCACCCAUGUCACGU [Eternabot (L2) Solution 97] (Eterna round: R97, puzzle: Exclusion 4)		0.0216	0.0259	
CUUUUGUGAGGAUAUUAGUAGUAAAUGAAUAAAAUUAUUACUGAGAAGGCACAUGAGGAUCACCCAUGUUCCUU [Mat - Exclusion 4 - Eli Mod - D19] (Eterna round: R97, puzzle: Exclusion 4)		0.0836	0.0146	
AGUUGGCGAGGAUAUACAUGAGGAUCACCCAUGUGAAAGAGAAGAGUGAGGAAGAAAAGUAGAAGGCGCUGACA [Mat - Exclusion 3 - Mod of Salish D39] (puzzle: Exclusion 3)	0.0693			apparent KD of MS2 coat protein [1]: 0.135 µM; apparent KD of MS2 coat protein [3]: 0.0752 µM
CUCCUGCGAGGAUAUACAUAGUGACGUCUGUUUAAUCUUAAACAUGAGGAUCACCCAUGUAGAAGGUGCGUCAC [EX2 #82] (Eterna round: R97, puzzle: Exclusion 2)		0.0131	0.0132	
UUUUAACAUGAGGAUCACCCAUGUGAGGAUAUCGAAAUUUAUAUUUAUAUUAAUAUAUCGAGAAGGCACAUUUU [JMF 80] (puzzle: Exclusion 1)	0.0931			
CCGAACUCAGGAUAUGCAUGUAUAACAGAGAGAUCCACUAAACAUGAGGAUCACCCAUGUAGAAGGGAGUCGGG [Eternabot (L1) Solution 14] (Eterna round: R97, puzzle: Exclusion 2)		0.887	0.365	
ACAUGAGGAUCACCCAUGUCUGGCUGGUCUGCUCCGGCUGUUGAGGAUAUAGUCCGGUGUUCGCGCUAGAAGGUGAGGGCUGGA [Aenatbe mod 41] (Eterna round: R96, puzzle: Exclusion NG 3)		0.107	0.0773	apparent KD of MS2 coat protein [4]: 0.0495 µM
